# Assay results as given in patent publication US6440701 (AVENTIS PASTEUR, dated 2002).
# B1: Native Tbp2 (4223) (receptor)
# chain: CGGSGGSNPPAPTPIPNASGSGNTGNTGNAGGTDNTANAGNTGGTNSGTGSANTPEPKYQDVPTEKNEKDKVSSIQEPAMGYGMALSKINLHNRQDTPLDEKNIITLDGKKQVAEGKKSPLPFSLDVENKLLDGYIAKMNVADKNAIGDRIKKGNKEISDEELAKQIKEAVRKSHEFQQVLSSLENKIFHSNDGTTKATTRDLKYVDYGYYLANDGNYLTVKTDKLWNLGPVGGVFYNGTTTAKELPTQDAVKYKGHWDFMTDVANRRNRFSEVKENSQAGWYYGASSKDEYNRLLTKEDSAPDGHSGEYGHSSEFTVNFKEKKLTGKLFSNLQDRHKGNVTKTERYDIDANIHGNRFRGSATASNKNDTSKHPFTSDANNRLEGGFYGPKGEELAGKFLTNDNKLFGVFGAKRESKAEEKTEAILDAYALGTFNTSNATTFTPFTEKQLDNFGNAKKLVLGSTVIDLVPTDATKNEFTKDKPESATNEAGETLMVNDEVSVKTYGKNFEYLKFGELSIGGSHSVFLQGERTATTGEKAVPTTGTAKYLGNWVGYITGKDTGTGTGKSFTDAQDVADFDIDFGNKSVSGKLITKGRQDPVFSITGQIAGNGWTGTASTTKADAGGYKIDSSSTGKSIVIKDANVTGGFYGPNANEMGGSFTHNADDSKASVVFGTKRQQEVK
# Target: apo-hTf-Sepharose 4B (human apo-transferrin coupled to Sepharose 4B) (human, UniProt P02787 20-698, coupled to Sepharose 4B)
# Experiment: affinity chromatography of solubilized membranes on apo-hTf-Sepharose 4B
# Chain of apo-hTf-Sepharose 4B (human apo-transferrin coupled to Sepharose 4B) (P02787 20-698 limits assumed): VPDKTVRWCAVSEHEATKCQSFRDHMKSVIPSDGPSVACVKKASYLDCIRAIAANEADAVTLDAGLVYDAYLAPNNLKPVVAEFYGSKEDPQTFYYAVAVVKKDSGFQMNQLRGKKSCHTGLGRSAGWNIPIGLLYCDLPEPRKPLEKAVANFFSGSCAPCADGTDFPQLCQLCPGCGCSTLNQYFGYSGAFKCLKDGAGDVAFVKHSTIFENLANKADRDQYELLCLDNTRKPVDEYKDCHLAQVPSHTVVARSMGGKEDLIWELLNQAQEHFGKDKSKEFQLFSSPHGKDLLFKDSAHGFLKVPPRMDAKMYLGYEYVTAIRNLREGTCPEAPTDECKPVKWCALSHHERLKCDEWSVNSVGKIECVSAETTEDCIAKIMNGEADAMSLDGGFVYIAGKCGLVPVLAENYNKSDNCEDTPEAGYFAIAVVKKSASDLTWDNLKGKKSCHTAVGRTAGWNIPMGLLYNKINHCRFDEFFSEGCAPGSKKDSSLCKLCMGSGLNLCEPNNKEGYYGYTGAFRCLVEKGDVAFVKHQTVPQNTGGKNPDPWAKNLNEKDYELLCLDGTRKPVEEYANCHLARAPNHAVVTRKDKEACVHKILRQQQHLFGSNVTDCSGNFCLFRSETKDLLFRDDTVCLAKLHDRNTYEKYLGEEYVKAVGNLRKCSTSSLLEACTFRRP
binder,measurement,value
B1,binding result,binds
